# Biological target: the molecule itself
# Test: immunogold EM spatial mapping (univariate Ripley's K-function); intact apical plasma membrane sheets of BHK cells expressing AC5-YFP or AC6-RFP, 4.5 nm gold on anti-YFP or anti-RFP, TEM at 100,000×
# Sequence of AC5-YFP (O95622 whole entry): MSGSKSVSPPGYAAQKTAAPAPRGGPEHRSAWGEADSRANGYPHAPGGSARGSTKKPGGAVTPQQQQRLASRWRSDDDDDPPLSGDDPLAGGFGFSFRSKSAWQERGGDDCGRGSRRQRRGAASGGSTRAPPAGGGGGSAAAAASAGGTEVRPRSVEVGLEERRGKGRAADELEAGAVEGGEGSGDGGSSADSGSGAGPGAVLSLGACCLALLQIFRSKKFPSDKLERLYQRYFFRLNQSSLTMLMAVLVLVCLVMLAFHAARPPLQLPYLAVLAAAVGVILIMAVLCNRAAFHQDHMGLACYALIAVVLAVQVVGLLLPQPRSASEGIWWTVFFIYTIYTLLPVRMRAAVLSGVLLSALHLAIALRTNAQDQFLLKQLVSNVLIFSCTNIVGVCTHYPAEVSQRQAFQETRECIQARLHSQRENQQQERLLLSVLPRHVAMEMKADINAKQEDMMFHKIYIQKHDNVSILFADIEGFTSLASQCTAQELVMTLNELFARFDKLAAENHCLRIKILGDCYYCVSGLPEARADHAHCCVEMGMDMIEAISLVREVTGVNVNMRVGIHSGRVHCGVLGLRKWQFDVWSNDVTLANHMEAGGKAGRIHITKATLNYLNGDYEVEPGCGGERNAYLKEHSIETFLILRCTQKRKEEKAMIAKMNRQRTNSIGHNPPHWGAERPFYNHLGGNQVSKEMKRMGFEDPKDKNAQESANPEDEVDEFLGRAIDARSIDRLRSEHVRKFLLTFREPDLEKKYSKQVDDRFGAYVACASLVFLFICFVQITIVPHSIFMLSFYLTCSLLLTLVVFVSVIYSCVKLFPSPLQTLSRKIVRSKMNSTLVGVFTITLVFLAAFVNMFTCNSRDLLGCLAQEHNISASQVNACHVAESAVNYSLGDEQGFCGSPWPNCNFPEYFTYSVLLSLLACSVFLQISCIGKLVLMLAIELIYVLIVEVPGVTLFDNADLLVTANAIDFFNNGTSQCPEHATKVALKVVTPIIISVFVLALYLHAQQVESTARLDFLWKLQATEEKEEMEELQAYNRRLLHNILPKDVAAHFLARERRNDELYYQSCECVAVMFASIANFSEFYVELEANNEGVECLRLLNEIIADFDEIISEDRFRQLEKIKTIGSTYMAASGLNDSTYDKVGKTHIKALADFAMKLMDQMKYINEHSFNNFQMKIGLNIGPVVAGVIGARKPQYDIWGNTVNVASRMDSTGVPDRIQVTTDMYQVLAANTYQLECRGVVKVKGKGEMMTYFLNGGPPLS
protein,measurement,value
"AC5-YFP (enzyme, adenylyl cyclase type 5; printed as AC5-YFP in the results and YFP-AC5 in the methods; also called YFP-AC5; source: BHK cells, transfected, on intact apical plasma membrane sheets) not shown",stoichiometry N,2
